Residue numbers refer to the chain shown, from its start.

Usually Kd stands for the constant that tells how readily two partners part at equilibrium. A high value points to a looser complex.

The target of assay [1] is F-actin (skeletal muscle, phalloidin stabilized) (Oryctolagus cuniculus, UniProt P68135). The assay is described as follows: co-sedimentation.
Assay [2] concerns the target F-actin (skeletal muscle) (Oryctolagus cuniculus, UniProt P68135). In words: co-sedimentation.

B1: β-III-spectrin ABD 1-284 (protein)
chain: MSSTLSPTDFDSLEIQGQYSDINNRWDLPDSDWDNDSSSARLFERSRIKALADEREAVQKKTFTKWVNSHLARVTCRVGDLYSDLRDGRNLLRLLEVLSGEILPKPTKGRMRIHCLENVDKALQFLKEQKVHLENMGSHDIVDGNHRLTLGLVWTIILRFQIQDISVETEDNKEKKSAKDALLLWCQMKTAGYPNVNVHNFTTSWRDGLAFNAIVHKHRPDLLDFESLKKCNAHYNLQNAFNLAEKELGLTKPLDPEDVNVDQPDEKSIITYVATYYHYFSKMK
Turning to B1, binding in assay [1] was put at a Kd of 0.0755 µM. In other words, the double-digit nanomolar range.

B2: β-III-spectrin ABD 1-284 (protein)
chain: B1 chain with P253L
In assay [2], B2 registered a Kd of 75.8 µM.

(Values after publication PMC4756369 (2016).)
